The source of these data is patent publication US20040107456A1 (ACADEMIA SINICA, published 2004).

Experiment [1] concerns the target T1, GBD-OsMYBS3 fusion protein (yeast; rice).
T1 construct: Two-hybrid bait
Description: two-hybrid in barley aleurone cells, luciferase reporter; similar results in yeast two-hybrid. The protocol:
(§1) In c-Myb, R2 and R3 bind to specific DNA sequences cooperatively. To test the possibility that OsMYBS binds DNA as dimers, homologous and heterologous interactions among OsMYBS proteins were analyzed using a two-hybrid system in barley aleurone cells. The full-length OsMYBS sequences were individually fused at the C-terminus of GAD or GBD. The GAD-OsMYBS and GBD-OsMYBS chimeric genes were fused downstream of the Ubi promoter and used as effector constructs. A DNA fragment containing five tandem repeats of UAS (5×UAS) was fused upstream of the CaMV35S minimal promoter-Luc chimeric gene and used as a reporter construct. The barley half seeds were particle-bombarded simultaneously with two effector plasmids, each containing GAD-OsMYBS and GBD-OsMYBS fusion genes, and the reporter plasmid. The bombarded half seeds were incubated in buffer without glucose for 24 h, and luciferase activity was determined. […] Except that the background level of reporter gene expression in the presence of GBD-OsMYBS1 alone is too high to detect the interactions between GBD-OsMYBS1 and GAD-OsMYBS proteins, similar results were obtained with the yeast two-hybrid experiments.

Experiment [2] has as its target T2, GBD-OsMYBS2 fusion protein (yeast; rice).
T2 construct: Two-hybrid bait
Described as above. The protocol: as §1

Experiment [3] concerns the target T3, GBD-OsMYBS1 fusion protein (yeast; rice, UniProt P04386 1-147).
T3 construct: Two-hybrid bait expressed from the Ubi promoter in barley aleurone cells
Description: two-hybrid in barley aleurone cells, luciferase reporter. As for the experimental part:
as §1
(In a reporter assay the amount or activity of a reporter protein is the signal.)

B1: GAD-OsMYBS1 fusion protein (other)
chain: MTSQAATTTTTAAAAAAWTREDDKAFENALAACAAPPPADGGAPDDDWFAALAASVPGARSAEEVRRHYEALVEDVAAIDAGRVPLPRYAGEESAAPPDGAGAAAAASKDGGHRRDERKGGGGGYDGGKSCSKAEQERRKGIPWTEEEHRLFLLGLDKFGKGDWRSISRNFVISRTPTQVASHAQKYFIRLNSMNRDRRRSSIHDITSVTAGDQVAAQQGAPITGHQATGNPAAAALGPPGMKHHHHHHPGGAPPPMPMYSAAPMGHPVAGHMVPAAVGTPVVFPPGHAPYVVPVGYPAPPAKMHQ
notes: Two-hybrid prey expressed from the Ubi promoter in barley aleurone cells; not shown: limits not
In the case of B1, the binding result in experiment [1] and in experiment [2] was “no binding” throughout.

B2: GAD-OsMYBS3 fusion protein (other)
chain: MTRRCSHCSHNGHNSRTCPNRGVKIFGVRLTDGSIRKSASMGNLSLLSSAAGSTSGGASPADGPDAAPTAADGYASDDFVQGFSSATRDRKKGVPWTEEEHRRFLLGLQKLGKGDWRGISRNFVVSRTPTQVASHAQKYFIRQSNMTRRKRRSSLFDMVPDESMDLPPLPGGQEPETQVLNQPALPPPKEEEEVDSMESDTSAVAESSSASAIMPDNLQSTYPVIVPAYFSPFLQFSVPFWQNQKDEDGPVQETHEIVKPVPVHSKSPINVDELVGMSKLSIGESNQETESTSLSLNLVGGQNRQSAFHANPPTRAQA
notes: as for B1
For B2, the binding result in experiment [1], in experiment [2] and in experiment [3] was “no binding” in each case.
